We go through 4 molecules from patent US20180291101A1 (published 2018).

Assay [1] addresses monomeric His-tagged human FcRn (hFcRn) (JTA) (human) (UniProt P55899). Description: SPR, IgG amine-coupled, hFcRn (JTA) injected, 1:1 fit, pH 6.0. (In general: In SPR one partner is held on a chip, and binding of the other changes the refractive index at the surface.)
Assay [2] shares this target. Description: SPR, IgG amine-coupled, hFcRn (JTA) injected, pH 6.0; second value of the cell (steady-state affinity model).
Assay [3] has the same target. Description: SPR, IgG amine-coupled, hFcRn (JTA) injected, pH 6.0; first value of the cell (kinetic fit).
The target in assay [4] is hFcRn in hFcRn TG mice (human FCGRT transgene) (human, UniProt P55899 24-365). Description: cell-based or functional assay.
Assay [5] addresses T1, recombinant human FcRn (Sino Biological Inc. Cat. No. CT009-H08H) (human, UniProt P55899 24-297; P61769 21-119).
T1 construct: Bought protein; also called hFcRn (SINO); immobilized FcRn
As to the kind of experiment: competition ELISA vs biotinylated parent murine antibody, pH 7.4. On the technique in general: An ELISA detects its analyte on a solid surface through an enzyme-linked reagent.

Assay [6] addresses T1, recombinant human FcRn (Sino Biological …). Description: competition ELISA vs biotinylated parent murine antibody, pH 6.0.
For assay [7] the target is unchanged. As to the kind of experiment: competition ELISA vs biotinylated human serum IgG, pH 6.0.

T1 sequence (P55899 24-297 limits assumed, chain 1 of 2): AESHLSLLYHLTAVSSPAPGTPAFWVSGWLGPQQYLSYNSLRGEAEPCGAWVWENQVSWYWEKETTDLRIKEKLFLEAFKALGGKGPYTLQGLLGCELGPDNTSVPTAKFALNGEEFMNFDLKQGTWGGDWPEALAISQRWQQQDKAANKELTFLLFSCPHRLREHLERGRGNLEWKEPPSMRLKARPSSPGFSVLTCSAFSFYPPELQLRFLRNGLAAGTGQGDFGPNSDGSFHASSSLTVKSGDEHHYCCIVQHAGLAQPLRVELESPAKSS
T1 sequence (P61769 21-119 limits assumed, chain 2 of 2): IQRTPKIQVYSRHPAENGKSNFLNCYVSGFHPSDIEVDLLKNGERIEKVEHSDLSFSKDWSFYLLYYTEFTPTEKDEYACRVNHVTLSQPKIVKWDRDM
Chain of monomeric His-tagged human FcRn (hFcRn) (JTA) (human) (P55899 24-297 limits assumed, chain 1 of 2): as the sequence (P55899 24-297 limits assumed, chain 1 of 2) above
Chain of monomeric His-tagged human FcRn (hFcRn) (JTA) (human) (P61769 21-119 limits assumed, chain 2 of 2, further chain): as the sequence (P61769 21-119 limits assumed, chain 2 of 2) above
Chain of hFcRn in hFcRn TG mice (human FCGRT transgene) (P55899 24-365): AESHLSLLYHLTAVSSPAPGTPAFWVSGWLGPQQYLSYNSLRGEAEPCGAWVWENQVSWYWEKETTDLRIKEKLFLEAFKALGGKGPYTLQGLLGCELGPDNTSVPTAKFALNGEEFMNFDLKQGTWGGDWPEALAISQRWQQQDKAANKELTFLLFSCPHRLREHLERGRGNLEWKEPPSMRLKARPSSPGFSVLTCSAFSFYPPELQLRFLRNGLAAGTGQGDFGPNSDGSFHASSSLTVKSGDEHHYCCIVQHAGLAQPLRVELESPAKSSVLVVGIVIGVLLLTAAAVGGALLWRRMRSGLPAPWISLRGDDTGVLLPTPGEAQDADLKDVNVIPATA

In assay [1], human IgG1 (hIgG1) (antibody) gave a koff of 0.0824 s⁻¹ and a kon of 108000 M⁻¹ s⁻¹. This molecule also showed a dissociation constant (Kd) in assay [2] of 1250 nM. Further, the Kd in assay [3] turned out to be 763 nM.

With human IgG4 (hIgG4) (antibody), the dissociation constant (Kd) in assay [2] was found to be 970 nM; in assay [3], 1010 nM.

B1: H3Vκ2 (H3VH1_Vκ2) IgG4 (antibody, V domains shown)
VH: QVQLVQSGAELKKPGASVKLSCKASGYTFTSYGISWVKQATGQGLEWIGEIYPRSGNTYYNEKFKGRATLTADKSTSTAYMELRSLRSEDSAVYFCARSTTVRPPGIWGTGTTVTVSS
VL: DIQMTQSPSSLSASVGDRVTITCKASDHINNWLAWYQQKPGQAPRLLISGATSLETGVPSRFSGSGTGKDYTLTISSLQPEDFATYYCQQYWSTPYTFGGGTKVEIK
Take B1: in assay [4], the “plasma concentration of HuLys11 (human IgG1) in hFcRn TG mice after 20 mg/kg” value is 3 fold reduction.

B2: VH1_A8/Vκ1 IgG4 (antibody, V domains shown)
VH: QVQLVQSGAELKKPGASVKLSCKASGYTFTSYGISWVKQATGQGLEWIGEIYPRSGNTYYNEKFKGRATLTADKSTSTAYMELRSLKSEDSAVYFCARSTTVSPPAHWGTGTTVTVSS
VL: DIQMTQSPSYLSASVGDRVTITCKASDHINNWLAWYQQKPGQAPRLLISGATSLETGVPSRFSGSGTGKDYTLTISSLQTEDFATYYCQQYWSTPYTFGGGTKVEIK
notes: IgG4
As to B2, the figures for the “average relative IC50 (normalized to chimeric parent murine antibody)” value in assay [5] and in assay [6] were 0.89 ratio and 0.87 ratio, respectively. In assay [7], the “average relative IC50 (normalized to parent murine antibody)” value turned out to be 0.53 ratio.

For orientation: koff means a measure of how fast the partners let go of each other. Low values mean slow dissociation, high ones fast dissociation. The kon is a measure of how fast the partners come together. A low value points to slow association. The Kd is the free concentration of one partner at which half of the binding sites on the other are occupied at equilibrium, for simple one-to-one binding. High values mean weaker binding, low ones tighter binding.
